Patent publication US20250276077A1 (IMMUNOME, published 2025)

Legend:
[1] = molecular target: T1, Human EphA2 (ephrin receptor A2) on cells (human, UniProt P29317 25-976); experiment: cell-based or functional assay
[2] = molecular target: T1, Human EphA2 (ephrin receptor A2) on …; experiment: cell-based or functional assay; remark: listed apart in the source
[3] = molecular target: T1, Human EphA2 (ephrin receptor A2) on …; experiment: flow cytometry on A549 cells
Experimental: (§1) Surface binding of the antibodies to in vitro grown cell lines was assessed by flow cytometry. Tumor cells were detached from their culture plate using Versene and counted. Cells were staining in BSA-containing buffer with primary antibody for 30 minutes at 4° C. with shaking. Following, cells were washed and stained with secondary PE-labeled antibody for 30 minutes at 4° C. with shaking. Before analysis on an Intellicyt iQue3 scanner, cells were counterstained with DAPI. MedFI values from live, single cells was expressed as fold over isotype control.

[4] = molecular target: T1, Human EphA2 (ephrin receptor A2) on …; experiment: cell-based or functional assay; remark: listed apart in the source
[5] = molecular target: T1, Human EphA2 (ephrin receptor A2) on …; experiment: cell-based or functional assay; remark: listed apart in the source
[6] = molecular target: T2, FcGR1 (human, UniProt P12314 16-374); experiment: flow cytometry, 6,000 human membrane proteins expressed on HEK293 cells
T2 construct: whole, on cells

[7] = molecular target: T3, mouse EphA2 on mouse tumour cells (mouse, UniProt Q03145 26-977); experiment: cell-based or functional assay
[8] = molecular target: T3, mouse EphA2 on mouse tumour cells; experiment: flow cytometry, CT26 cells (in vitro)
Experimental: as §1

[9] = molecular target: T4, EphA4 (homologous receptor, screening at Integral Molecular) (human, UniProt P54764 20-986); experiment: membrane protein screening on cells
T4 construct: whole, on cells

[10] = molecular target: T5, EphA4_ECD (aa 23-546), Full ECD, displayed on yeast (human, UniProt P54764 23-546); experiment: yeast surface display, flow cytometry titration
T5 construct: also called EphA4 full ECD

[11] = molecular target: human 4-1BB on reporter cells (human, UniProt Q07011 24-255); experiment: cell-based or functional assay
[12] = molecular target: T6, C-terminally His-tagged hEphA2-FN2 (Thr437-Asn534+His tag) (human, UniProt P29317 437-534); experiment: SPR Biacore T200, 25 C; mIgG2a captured by anti-mouse Fc, hEphA2-FN2-His analyte; steady-state monovalent KD
T6 construct: also called FN2 domain of hEphA2
Experimental: Binding of antibodies to the FN2 domain of hEphA2 was measured using the Biacore® T200 SPR system at 25° C. using HBS-EP+ buffer (0.01 M HEPES pH 7.4, 0.15 M NaCl, 3 mM EDTA, 0.005% v/v Surfactant P20). Antibodies in mIgG2a format were captured at levels between 475-715 RU via an anti-mouse Fc antibody immobilized to a CM5 chip. Binding was assessed using a titration of C-terminally His-tagged hEphA2-FN2 (Thr437-Asn534+His tag) associated for 30 s or 75 s at 30 μL/min. Data was double-reference subtracted using both a surface without captured antibody and from injections of HBS-EP+ buffer. The equilibrium response was measured at 4 seconds before the end of association with a window of 5 seconds and fit using the Biacore T200 Evaluation Software 3.1 with the Steady State Affinity Model.

[13] = molecular target: T6, C-terminally His-tagged hEphA2-FN2 …; experiment: SPR Biacore T200, 25 C; mIgG2a as immobilized ligand, hEphA2-FN2-His analyte
Experimental: Binding of EphA2 antibodies to the FN2 domain of hEphA2 was measured using the Biacore® T200 SPR system. Biacore® assays were conducted at 25° C. using HBS-EP+ buffer (0.01 M HEPES pH 7.4, 0.15 M NaCl, 3 mM EDTA, 0.005% v/v Surfactant P20) using the FN2 domain as the analyte with the antibodies in mIgG2a format as the immobilized ligand. Data was analyzed using 1:1 Langmuir binding model and steady-state model in Biacore Evaluation software.
C-terminally His-tagged human EphA2 FN2 domain (Thr437-Asn534+His tag) was used as the analyte. The analyte was associated for 120 seconds and dissociated for 100 seconds or 300 seconds at 30 μL/min.

[14] = molecular target: T7, hEphA2-clv432-534-Fc (human, UniProt P29317 432-534); experiment: SPR Biacore, 25 C; hEphA2-Fc fusion captured by anti-human Fc, Fab analyte
T7 construct: Recombinant fragment representing a cleavage form; not shown: human Fc, C-terminal to the EphA2 part
Experimental: (§2) The hEphA2-Fc fusions were captured with an anti-human Fe immobilized to a CM5 chip.
(§3) Biacore® assays were conducted at 25° C. using HBS-EP+ buffer (0.01 M HEPES pH 7.4, 0.15 M NaCl, 3 mM EDTA, 0.005% v/v Surfactant P20). Data was double-reference subtracted and data was analyzed using 1:1 Langmuir binding model and steady-state model in Biacore Evaluation software.
(§4) Binding to hEphA2-ECD-Fc tested using 100, 300, and 900 nM analyte.

[15] = molecular target: T8, hEphA2-clv395-534-Fc (human, UniProt P29317 395-534); experiment: as above
T8 construct: Recombinant fragment representing a cleavage form; not shown: human Fc, C-terminal to the EphA2 part
Experimental: as §2, §3, §4

[16] = molecular target: T9, hEphA2-FN2-(437-534) - Fc (human, UniProt P29317 437-534); experiment: as above
T9 construct: also called FN2 domain Fc fusion; not shown: human Fc, C-terminal to the EphA2 part
Experimental: as §2, §3, §4

[17] = molecular target: T10, hEphA2-clv435-534-Fc (human, UniProt P29317 435-534); experiment: as above
T10 construct: Recombinant fragment representing a cleavage form; not shown: human Fc, C-terminal to the EphA2 part
Experimental: as §2, §3, §4

[18] = molecular target: T11, hEphA2-FN12-(327-534) - Fc (human, UniProt P29317 327-534); experiment: as above
T11 construct: also called FN1-FN2 domains Fc fusion; not shown: human Fc, C-terminal to the EphA2 part
Experimental: as §2, §3, §4

[19] = molecular target: T12, hEphA2-clv385-534-Fc (human, UniProt P29317 385-534); experiment: as above
T12 construct: Recombinant fragment representing a cleavage form; not shown: human Fc, C-terminal to the EphA2 part
Experimental: as §2, §3, §4

T1 sequence (P29317 25-976): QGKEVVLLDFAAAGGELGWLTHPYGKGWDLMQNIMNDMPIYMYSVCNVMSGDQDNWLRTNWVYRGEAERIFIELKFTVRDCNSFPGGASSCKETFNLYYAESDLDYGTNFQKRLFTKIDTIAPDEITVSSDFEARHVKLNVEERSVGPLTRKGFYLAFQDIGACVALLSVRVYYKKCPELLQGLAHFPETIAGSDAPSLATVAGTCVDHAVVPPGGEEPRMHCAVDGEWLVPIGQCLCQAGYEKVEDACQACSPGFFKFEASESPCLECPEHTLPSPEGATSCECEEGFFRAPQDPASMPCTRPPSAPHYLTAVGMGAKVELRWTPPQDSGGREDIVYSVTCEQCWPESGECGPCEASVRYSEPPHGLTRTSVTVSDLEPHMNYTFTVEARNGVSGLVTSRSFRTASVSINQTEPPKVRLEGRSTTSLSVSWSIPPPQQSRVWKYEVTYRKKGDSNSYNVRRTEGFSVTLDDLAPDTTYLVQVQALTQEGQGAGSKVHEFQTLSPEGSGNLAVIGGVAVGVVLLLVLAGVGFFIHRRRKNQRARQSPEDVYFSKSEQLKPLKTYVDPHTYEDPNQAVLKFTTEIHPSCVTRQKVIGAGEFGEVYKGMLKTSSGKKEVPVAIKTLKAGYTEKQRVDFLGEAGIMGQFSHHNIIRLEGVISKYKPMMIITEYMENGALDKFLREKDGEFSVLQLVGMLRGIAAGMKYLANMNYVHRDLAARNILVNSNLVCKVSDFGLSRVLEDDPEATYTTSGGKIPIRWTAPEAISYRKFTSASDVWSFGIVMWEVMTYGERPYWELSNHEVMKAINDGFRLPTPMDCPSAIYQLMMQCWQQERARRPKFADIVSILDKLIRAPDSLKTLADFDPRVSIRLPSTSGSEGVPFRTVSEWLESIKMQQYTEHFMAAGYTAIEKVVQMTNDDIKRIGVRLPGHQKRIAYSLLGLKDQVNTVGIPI
T7 sequence (P29317 432-534): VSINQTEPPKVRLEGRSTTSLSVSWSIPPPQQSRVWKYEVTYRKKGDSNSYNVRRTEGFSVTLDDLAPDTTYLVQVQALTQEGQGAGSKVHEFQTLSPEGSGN
T9 sequence (P29317 437-534): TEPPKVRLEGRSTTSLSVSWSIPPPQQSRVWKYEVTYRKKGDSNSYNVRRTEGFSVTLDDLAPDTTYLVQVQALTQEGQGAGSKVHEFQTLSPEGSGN
T6 sequence (P29317 437-534 limits assumed): as the sequence (P29317 437-534) above
T11 sequence (P29317 327-534): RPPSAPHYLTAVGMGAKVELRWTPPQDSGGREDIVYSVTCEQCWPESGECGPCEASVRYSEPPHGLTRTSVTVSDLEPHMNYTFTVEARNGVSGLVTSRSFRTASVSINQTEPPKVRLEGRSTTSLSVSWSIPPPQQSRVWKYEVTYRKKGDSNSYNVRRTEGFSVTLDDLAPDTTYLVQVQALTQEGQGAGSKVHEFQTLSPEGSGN
T8 sequence (P29317 395-534): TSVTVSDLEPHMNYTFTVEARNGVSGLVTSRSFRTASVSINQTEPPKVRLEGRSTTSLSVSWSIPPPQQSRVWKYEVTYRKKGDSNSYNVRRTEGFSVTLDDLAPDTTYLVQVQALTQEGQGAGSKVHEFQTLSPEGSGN
T12 sequence (P29317 385-534): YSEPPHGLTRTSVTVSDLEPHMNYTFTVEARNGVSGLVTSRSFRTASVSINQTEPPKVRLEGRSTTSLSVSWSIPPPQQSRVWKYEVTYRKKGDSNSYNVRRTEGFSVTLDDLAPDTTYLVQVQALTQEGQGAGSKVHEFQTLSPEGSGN
T10 sequence (P29317 435-534): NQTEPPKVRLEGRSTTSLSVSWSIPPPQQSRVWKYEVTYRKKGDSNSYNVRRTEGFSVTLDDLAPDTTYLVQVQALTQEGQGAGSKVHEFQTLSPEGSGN
T3 sequence (Q03145 26-977): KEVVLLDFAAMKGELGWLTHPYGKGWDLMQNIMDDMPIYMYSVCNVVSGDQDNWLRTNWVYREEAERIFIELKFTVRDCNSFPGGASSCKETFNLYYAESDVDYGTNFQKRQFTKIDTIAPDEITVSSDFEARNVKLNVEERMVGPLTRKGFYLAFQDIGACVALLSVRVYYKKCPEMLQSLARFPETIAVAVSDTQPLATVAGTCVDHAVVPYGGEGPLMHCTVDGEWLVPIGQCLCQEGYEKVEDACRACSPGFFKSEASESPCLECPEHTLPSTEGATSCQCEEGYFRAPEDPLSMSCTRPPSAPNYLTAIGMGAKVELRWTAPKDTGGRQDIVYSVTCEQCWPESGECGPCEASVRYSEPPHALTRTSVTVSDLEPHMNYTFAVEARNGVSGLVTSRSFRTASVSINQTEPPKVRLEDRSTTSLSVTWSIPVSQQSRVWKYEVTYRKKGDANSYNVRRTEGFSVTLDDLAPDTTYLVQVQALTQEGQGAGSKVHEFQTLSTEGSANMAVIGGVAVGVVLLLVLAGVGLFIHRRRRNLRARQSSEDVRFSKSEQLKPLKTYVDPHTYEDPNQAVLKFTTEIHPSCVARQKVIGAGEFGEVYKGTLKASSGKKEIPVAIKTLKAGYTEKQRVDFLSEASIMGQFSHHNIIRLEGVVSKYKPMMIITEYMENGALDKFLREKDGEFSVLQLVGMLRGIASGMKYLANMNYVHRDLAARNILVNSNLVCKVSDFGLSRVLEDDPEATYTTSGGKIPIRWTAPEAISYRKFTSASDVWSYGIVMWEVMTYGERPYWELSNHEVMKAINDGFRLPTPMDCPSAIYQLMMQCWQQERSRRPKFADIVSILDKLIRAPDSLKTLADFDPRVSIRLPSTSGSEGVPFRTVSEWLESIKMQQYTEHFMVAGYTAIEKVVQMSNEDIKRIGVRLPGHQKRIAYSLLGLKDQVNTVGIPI
T2 sequence (P12314 16-374): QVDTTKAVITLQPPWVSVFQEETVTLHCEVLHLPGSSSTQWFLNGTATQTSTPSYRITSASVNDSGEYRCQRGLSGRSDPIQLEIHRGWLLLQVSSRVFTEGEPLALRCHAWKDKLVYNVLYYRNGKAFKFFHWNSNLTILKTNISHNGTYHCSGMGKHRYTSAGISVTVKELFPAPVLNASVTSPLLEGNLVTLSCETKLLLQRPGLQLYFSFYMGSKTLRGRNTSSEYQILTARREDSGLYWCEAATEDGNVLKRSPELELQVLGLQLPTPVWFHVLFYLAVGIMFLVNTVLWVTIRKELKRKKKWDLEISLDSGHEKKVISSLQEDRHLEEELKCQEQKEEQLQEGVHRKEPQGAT
T4 sequence (P54764 20-986): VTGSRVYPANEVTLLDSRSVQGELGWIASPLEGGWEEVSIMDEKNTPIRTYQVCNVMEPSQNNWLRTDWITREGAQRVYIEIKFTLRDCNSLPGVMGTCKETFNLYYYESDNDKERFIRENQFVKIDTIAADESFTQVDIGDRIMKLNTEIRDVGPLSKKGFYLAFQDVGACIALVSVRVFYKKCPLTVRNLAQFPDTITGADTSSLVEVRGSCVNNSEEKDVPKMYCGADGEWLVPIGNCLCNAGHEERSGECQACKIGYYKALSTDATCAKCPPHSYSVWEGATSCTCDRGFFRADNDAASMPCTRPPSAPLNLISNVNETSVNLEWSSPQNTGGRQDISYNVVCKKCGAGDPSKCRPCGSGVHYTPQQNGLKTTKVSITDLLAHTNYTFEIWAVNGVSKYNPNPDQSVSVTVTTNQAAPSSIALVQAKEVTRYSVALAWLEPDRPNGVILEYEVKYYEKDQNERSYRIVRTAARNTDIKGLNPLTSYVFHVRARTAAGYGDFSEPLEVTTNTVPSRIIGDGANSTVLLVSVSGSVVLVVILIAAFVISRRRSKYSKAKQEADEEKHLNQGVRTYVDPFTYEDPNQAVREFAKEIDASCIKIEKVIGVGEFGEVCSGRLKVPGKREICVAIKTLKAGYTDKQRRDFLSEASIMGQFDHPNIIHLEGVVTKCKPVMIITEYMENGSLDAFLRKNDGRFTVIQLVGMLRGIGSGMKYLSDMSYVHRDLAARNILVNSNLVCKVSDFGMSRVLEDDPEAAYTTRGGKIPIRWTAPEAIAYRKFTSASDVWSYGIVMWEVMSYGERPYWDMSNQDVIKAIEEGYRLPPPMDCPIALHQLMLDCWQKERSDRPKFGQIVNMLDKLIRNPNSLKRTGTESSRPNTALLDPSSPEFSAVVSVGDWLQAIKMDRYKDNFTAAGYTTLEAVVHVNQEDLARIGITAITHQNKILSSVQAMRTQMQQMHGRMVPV
human 4-1BB on reporter cells, sequence (Q07011 24-255): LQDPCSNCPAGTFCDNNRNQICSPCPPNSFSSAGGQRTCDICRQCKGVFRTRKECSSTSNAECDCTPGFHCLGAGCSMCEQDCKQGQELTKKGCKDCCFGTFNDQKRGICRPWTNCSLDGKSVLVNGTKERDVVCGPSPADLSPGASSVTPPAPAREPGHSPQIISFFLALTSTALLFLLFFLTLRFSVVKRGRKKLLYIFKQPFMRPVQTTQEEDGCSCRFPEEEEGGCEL
T5 sequence (P54764 23-546 limits assumed): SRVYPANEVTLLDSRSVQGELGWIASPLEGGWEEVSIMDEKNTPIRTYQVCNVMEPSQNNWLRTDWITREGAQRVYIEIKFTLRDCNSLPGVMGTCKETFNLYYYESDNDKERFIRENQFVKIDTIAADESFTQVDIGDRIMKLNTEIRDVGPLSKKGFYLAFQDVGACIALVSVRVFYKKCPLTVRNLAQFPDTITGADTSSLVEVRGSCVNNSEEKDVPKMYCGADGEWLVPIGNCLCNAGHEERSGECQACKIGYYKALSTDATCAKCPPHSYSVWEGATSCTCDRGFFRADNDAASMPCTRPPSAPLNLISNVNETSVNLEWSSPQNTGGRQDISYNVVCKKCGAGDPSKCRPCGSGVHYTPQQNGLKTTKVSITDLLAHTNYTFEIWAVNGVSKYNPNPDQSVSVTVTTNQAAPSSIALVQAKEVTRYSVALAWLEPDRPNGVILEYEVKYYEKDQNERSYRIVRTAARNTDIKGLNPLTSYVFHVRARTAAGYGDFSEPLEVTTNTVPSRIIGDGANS

B1: AB-010699 (antibody, V domains shown)
VH: QVQLQQWGAGLLKPSETLSLTCAVYGGSFSGYYWSWIRQPPGKGLEWIGEINHRGSINYNNYNPSLKSRVTISVDTSKNQFSLKLSSVTAADTAVYYCAKPLRPHCINGVCYSGDAFDIWGQGTMVTVAS
VL: SYVLTQPPSVSVAPGQTARITCGGNNIGYKNVHWYQQKPGQAPVLVVYDDSDRPSGIPERFSGSNSGNTATLTISRVEAGDEADYYCQVWDHSSDHVVFGGGTKLTVL
ADCC - EC50 (nM), Trial 1, A549 [1]: ~0.014 nM
ADCC - EC50 (nM), Trial 2, A549 [1]: 0.0058 nM
EC50 (read off the curve), EphA2 pY588 phosphorylation, soluble agonist titration [2]: ~3e-09 M

B2: AB-009815 (antibody, mouse IgG2a, V domains shown)
VH: QVQLQQWGAGLLKPSETLSLTCAVYGGSFSDYYWSWIRQPPGKGLEWIGEVNHRGSINYNNYNPSLKSRVTISVDTSKNQFSLKLTSVTAADTAVYYCAKPLRPHCTNGVCYSGDAFDIWGQGTMVTVAS
VL: SYVLTQPPSVSVAPGQTARITCGGNNIGSKNVHWYQQKPGQAPVLVVYDDSDRPSGIPEQFSGSNSGNTATLTISRVEAGDEADYYCQVWDSSSDHLVFGGGTKLTVL
EC50 [3]: 5.5 nM
Flow Delta [3]: 745000
ADCC Delta, A549 cells [4]: 59.8
ADCC EC50 (nM), A549 cells [4]: 10.4 nM
EC50 (read off the curve), ADC activity [5]: ~2 nM

B3: AB-008873 (antibody)
heavy: QVQLQQWGAGLLKPSETLSLTCAVYGGSFSDYYWSWIRQPPGKGLEWIGEVNHRGSINYNNYNPSLKSRVTISVDPSKNQFSLKLTSVTAADTAVYYCAKPLRPHCTNGVCYSGDAFDIWGQGTMVTVASAKTTAPSVYPLAPVCGDTTGSSVTLGCLVKGYFPEPVTLTWNSGSLSSGVHTFPAVLQSDLYTLSSSVTVTSSTWPSQSITCNVAHPASSTKVDKKIEPRGPTIKPCPPCKCPAPNLLGGPSVFIFPPKIKDVLMISLSPIVTCVVVDVSEDDPDVQISWFVNNVEVHTAQTQTHREDYNSTLRVVSALPIQHQDWMSGKEFKCKVNNKDLPAPIERTISKPKGSVRAPQVYVLPPPEEEMTKKQVTLTCMVTDFMPEDIYVEWTNNGKTELNYKNTEPVLDSDGSYFMYSKLRVEKKNWVERNSYSCSVVHEGLHNHHTTKSFSRTPG
light: SYVLTQPPSVSVAPGQTARITCGGNNIGSKNVHWYQQKPGQAPVLVVYDDSDRPSGIPEQFSGSNSGNTATLTISRVEAGDEADYYCQVWDSSSDHLVFGGGTKLTVLGQPKSSPSVTLFPPSSEELETNKATLVCTITDFYPGVVTVDWKVDGTPVTQGMETTQPSKQSNNKYMASSYLTLTARAWERHSSYSCQVTHEGHTVEKSLSRADCS
binding result [6]: binds
ADCC EC50 (nM), EMT6 cells [7]: > 100 nM
fold (MedFI over isotype control) [8]: 16 fold
binding result [9]: no binding
binding result [10]: no binding (tested: about 300 nM)

B4: Urelumab (AB-009811) (antibody, V domains shown)
VH: QVQLQQWGAGLLKPSETLSLTCAVYGGSFSGYYWSWIRQSPEKGLEWIGEINHGGYVTYNPSLESRVTISVDTSKNQFSLKLSSVTAADTAVYYCARDYGPGNYDWYFDLWGRGTLVTVSS
VL: EIVLTQSPATLSLSPGERATLSCRASQSVSSYLAWYQQKPGQAPRLLIYDASNRATGIPARFSGSGSGTDFTLTISSLEPEDFAVYYCQQRSNWPPALTFGGGTKVEIK
EC50 (read off the curve), 4-1BB reporter activation with PC3 [11]: ~0.3 nM

B5: AB-010699 (mouse IgG2a format) (antibody, V domains shown)
VH: QVQLQQWGAGLLKPSETLSLTCAVYGGSFSGYYWSWIRQPPGKGLEWIGEINHRGSINYNNYNPSLKSRVTISVDTSKNQFSLKLSSVTAADTAVYYCAKPLRPHCINGVCYSGDAFDIWGQGTMVTVAS
VL: SYVLTQPPSVSVAPGQTARITCGGNNIGYKNVHWYQQKPGQAPVLVVYDDSDRPSGIPERFSGSNSGNTATLTISRVEAGDEADYYCQVWDHSSDHVVFGGGTKLTVL
notes: tested in mIgG2a format
Kd [12]: 18.9 nM
Kd [13]: 19 nM
koff [13]: 0.075 s⁻¹
kon [13]: 3.9e+06 M⁻¹ s⁻¹

B6: AB-010699 human Fab fragment (Fab, V domains shown)
VH: QVQLQQWGAGLLKPSETLSLTCAVYGGSFSGYYWSWIRQPPGKGLEWIGEINHRGSINYNNYNPSLKSRVTISVDTSKNQFSLKLSSVTAADTAVYYCAKPLRPHCINGVCYSGDAFDIWGQGTMVTVAS
VL: SYVLTQPPSVSVAPGQTARITCGGNNIGYKNVHWYQQKPGQAPVLVVYDDSDRPSGIPERFSGSNSGNTATLTISRVEAGDEADYYCQVWDHSSDHVVFGGGTKLTVL
notes: Human Fab format
Kd [14]: 9.6 nM
koff [14]: 0.075 s⁻¹
kon [14]: 7.78e+06 M⁻¹ s⁻¹
Kd [15]: 12 nM
koff [15]: 0.07 s⁻¹
kon [15]: 5.72e+06 M⁻¹ s⁻¹
Kd [16]: 8.6 nM
koff [16]: 0.085 s⁻¹
kon [16]: 1e+07 M⁻¹ s⁻¹
Kd [17]: 9.3 nM
koff [17]: 0.078 s⁻¹
kon [17]: 8.42e+06 M⁻¹ s⁻¹
Kd [18]: 8.6 nM
koff [18]: 0.043 s⁻¹
kon [18]: 5e+06 M⁻¹ s⁻¹
Kd [19]: 12 nM
koff [19]: 0.072 s⁻¹
kon [19]: 6.05e+06 M⁻¹ s⁻¹
